B4: human Spagh/RPAP3 120-395 (tandem TPR region) (domain or fragment, UniProt Q9H6T3 120-395, looked up)
chain: ESEEDGIHVDSQKALVLKEKGNKYFKQGKYDEAIDCYTKGMDADPYNPVLPTNRASAYFRLKKFAVAESDCNLAVALNRSYTKAYSRRGAARFALQKLEEAKKDYERVLELEPNNFEATNELRKISQALASKENSYPKEADIVIKSTEGERKQIEAQQNKQQAISEKDRGNGFFKEGKYERAIECYTRGIAADGANALLPANRAMAYLKIQKYEEAEKDCTQAILLDGSYSKAFARRGTARTFLGKLNEAKQDFETVLLLEPGNKQAVTELSKIKK
notes: Spagh/RPAP3, human, residues 120-395, tandem TPR region; GST fusion with a PreScission site; also called Spagh/RPAP3-TPR2 (label of the tandem region in the text); wild-type Spagh/RPAP3
B5: Spagh/RPAP3 120-395 N172E (domain or fragment, human, UniProt Q9H6T3 120-395, looked up)
chain: ESEEDGIHVDSQKALVLKEKGNKYFKQGKYDEAIDCYTKGMDADPYNPVLPTERASAYFRLKKFAVAESDCNLAVALNRSYTKAYSRRGAARFALQKLEEAKKDYERVLELEPNNFEATNELRKISQALASKENSYPKEADIVIKSTEGERKQIEAQQNKQQAISEKDRGNGFFKEGKYERAIECYTRGIAADGANALLPANRAMAYLKIQKYEEAEKDCTQAILLDGSYSKAFARRGTARTFLGKLNEAKQDFETVLLLEPGNKQAVTELSKIKK
notes: Spagh/RPAP3, human, residues 120-395, N172E in TPR1; also called N172E-TPR1 mutant
B6: Spagh/RPAP3 120-395 N321E (domain or fragment, human, UniProt Q9H6T3 120-395, looked up)
chain: ESEEDGIHVDSQKALVLKEKGNKYFKQGKYDEAIDCYTKGMDADPYNPVLPTNRASAYFRLKKFAVAESDCNLAVALNRSYTKAYSRRGAARFALQKLEEAKKDYERVLELEPNNFEATNELRKISQALASKENSYPKEADIVIKSTEGERKQIEAQQNKQQAISEKDRGNGFFKEGKYERAIECYTRGIAADGANALLPAERAMAYLKIQKYEEAEKDCTQAILLDGSYSKAFARRGTARTFLGKLNEAKQDFETVLLLEPGNKQAVTELSKIKK
notes: Spagh/RPAP3, human, residues 120-395, N321E in TPR2; also called N321E-TPR2 mutant
B7: Tah1p-Pih1p 187-344 complex (complex, yeast)
chain 1: MSQFEKQKEQGNSLFKQGLYREAVHCYDQLITAQPQNPVGYSNKAMALIKLGEYTQAIQMCQQGLRYTSTAEHVAIRSKLQYRLELAQGAVGSVQIPVVEVDELPEGYDRS
chain 2: HKIIEEEAGDPMSILRGRNDDGDDNNDPDDGTLPPLFPIENKISGAKIEEIDKNEIAHRNLKQAPAPAPAPHEQQEDVPEYEVKMKRFKGAAYKLRILIENKAPNSKPDRFSPSYNFAENILYINGKLSIPLPRDIVVNAADIKIFHIRKERTLYIYI
notes: Tah1, S. cerevisiae, full length; also called Tah1-Pih1-CS heterodimer
B8: dimeric C-terminal domain of Hsp90 (Hsp90 600-709) (domain or fragment)
chain: not shown
notes: Hsp90 residues 600-709, dimeric C-terminal domain; also called cHsp90; C-Hsp90

What all share (settings): both partners purified
Assay [1] concerns the target T1, mouse Pih1 PIH domain 1-200 (His-mPih1 1-200) (mouse, UniProt Q9CQJ2 1-200).
T1 construct: Pih1 (Pih1D1), mouse, residues 1-200; SeMet protein was used for the crystal structure 4CKT; The ITC methods say only 'Pih1' / 'mPIH domain'; also called mPIH domain; Pih1D1
The assay is described as follows: ITC; peptides at 350 μM injected into 30 μM Pih1 (mPIH domain) at 30°C; 20 mM Tris pH 7.5, 5 mM NaCl. In general terms: In ITC the heat of successive injections is recorded.

Assay [2] deals with B5. The assay is described as follows: ITC; 2 mM … injected into 80 μM Spagh/RPAP3 120-395 mutants (N172E, N321E, N172E-N321E); 10 mM Tris pH 7.5, 5 mM NaCl; temperature not given; two site model.
Assay [3] addresses B6. Described as above.
The target in assay [4] is B4. The experiment in a line: ITC; 2 mM … injected into 80 μM Spagh/RPAP3 120-395; 10 mM Tris pH 7.5, 5 mM NaCl; 30°C; two site fitting.
Assay [5] addresses B4. The assay is described as follows: ITC; 2 mM … injected into 80 μM Spagh/RPAP3 120-395; 10 mM Tris pH 7.5, 5 mM NaCl; 10°C; two site fitting.
The next assay addresses T2, His6-Hsp90β (human, UniProt P08238 1-724).
T2 construct: Hsp90 beta, human; also called His-tagged Hsp90; human Hsp90β
The assay is described as follows: pull-down; His6-Hsp90β as bait, Spagh/RPAP3 120-395 tandem TPR segment (wild type and mutants) as prey.

The target in assay [6] is B8. The assay is described as follows: SEC; calibrated gel-filtration column; cHsp90, Tah1-Pih1p 187-344 and their mixture.
For assay [7], the target named is T3, Tah1 (yeast, full-length) (yeast, UniProt P25638 1-111).
T3 construct: Tah1, S. cerevisiae, full length (C-terminal residue Ser 111); Selenomethionine-labelled Tah1 was used for the crystal structure; also called Tah1p; SeMetTah1
T3 sequence (looked up): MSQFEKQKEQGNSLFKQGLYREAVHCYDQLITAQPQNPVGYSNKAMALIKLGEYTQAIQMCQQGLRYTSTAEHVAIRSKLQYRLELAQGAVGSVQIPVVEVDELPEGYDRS
Described as above.

Assay [8] has as its target B7. Described as above.
The target of a further assay is T4, FLAG-tagged Tah1 (yeast, UniProt P25638 1-111).
T4 construct: Tah1p, S. cerevisiae; also called FLAG-Tah1; Flag-Tah1p
T4 sequence: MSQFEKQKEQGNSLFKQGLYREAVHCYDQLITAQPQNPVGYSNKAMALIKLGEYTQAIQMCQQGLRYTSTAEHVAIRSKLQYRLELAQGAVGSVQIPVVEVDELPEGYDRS
The assay is described as follows: co-IP; 70 μM Flag-Tah1p, Hsp90 600-709 and increasing concentrations of Cpr6 in 20 mM HEPES pH 7.5, 150 mM NaCl, 10% glycerol, 0.5% Igepal, 2 mM EDTA; Anti-Flag M2 magnetic beads; SDS-PAGE.

Assay [9] has as its target T5, Cpr6 (monomeric TPR-domain Hsp90 cochaperone) (UniProt P53691 1-371).
T5 construct: Cpr6, TPR-domain Hsp90 cochaperone
Described as above.

We go through eight molecules from article PMC4058522, “Structural Basis for Phosphorylation-Dependent Recruitment of Tel2 to Hsp90 by Pih1” (Structure(London, England:1993), 2014).

What is called Kd is the concentration at which binding is half-saturated. By stoichiometry N is commonly meant the number of molecules, sites or subunits per partner or assembly.

Square brackets hold non-standard residues; d marks the D form. Ends that are not written are not given here. pT = C[C@@H](OP(=O)(O)O)[C@H](N)C(=O)O; pS = N[C@@H](COP(=O)(O)O)C(=O)O

T2 sequence (P08238 whole entry): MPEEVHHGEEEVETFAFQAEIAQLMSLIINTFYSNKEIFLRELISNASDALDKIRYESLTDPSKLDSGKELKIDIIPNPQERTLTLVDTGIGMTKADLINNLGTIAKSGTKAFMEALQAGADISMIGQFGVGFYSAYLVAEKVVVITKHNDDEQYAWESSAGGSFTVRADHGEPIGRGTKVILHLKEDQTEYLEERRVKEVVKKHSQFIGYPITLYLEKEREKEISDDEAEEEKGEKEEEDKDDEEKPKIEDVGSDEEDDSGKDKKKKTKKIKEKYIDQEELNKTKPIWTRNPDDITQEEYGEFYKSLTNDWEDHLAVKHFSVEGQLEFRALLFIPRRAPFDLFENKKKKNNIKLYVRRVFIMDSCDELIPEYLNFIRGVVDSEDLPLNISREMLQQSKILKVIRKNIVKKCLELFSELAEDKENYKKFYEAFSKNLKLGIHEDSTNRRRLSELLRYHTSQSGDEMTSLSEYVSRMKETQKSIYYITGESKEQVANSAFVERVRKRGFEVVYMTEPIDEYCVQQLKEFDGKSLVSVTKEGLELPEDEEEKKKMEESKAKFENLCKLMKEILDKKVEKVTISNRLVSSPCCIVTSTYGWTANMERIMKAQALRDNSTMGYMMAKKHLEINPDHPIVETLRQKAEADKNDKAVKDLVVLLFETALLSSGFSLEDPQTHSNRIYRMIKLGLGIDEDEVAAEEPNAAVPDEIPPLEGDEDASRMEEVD
T1 sequence (Q9CQJ2 1-200): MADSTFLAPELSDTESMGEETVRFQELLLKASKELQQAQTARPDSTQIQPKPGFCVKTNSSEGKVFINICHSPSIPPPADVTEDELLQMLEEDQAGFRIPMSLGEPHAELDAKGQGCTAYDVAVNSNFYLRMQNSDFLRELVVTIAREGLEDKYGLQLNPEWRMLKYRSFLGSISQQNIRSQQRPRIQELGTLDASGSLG
T5 sequence (P53691 whole entry): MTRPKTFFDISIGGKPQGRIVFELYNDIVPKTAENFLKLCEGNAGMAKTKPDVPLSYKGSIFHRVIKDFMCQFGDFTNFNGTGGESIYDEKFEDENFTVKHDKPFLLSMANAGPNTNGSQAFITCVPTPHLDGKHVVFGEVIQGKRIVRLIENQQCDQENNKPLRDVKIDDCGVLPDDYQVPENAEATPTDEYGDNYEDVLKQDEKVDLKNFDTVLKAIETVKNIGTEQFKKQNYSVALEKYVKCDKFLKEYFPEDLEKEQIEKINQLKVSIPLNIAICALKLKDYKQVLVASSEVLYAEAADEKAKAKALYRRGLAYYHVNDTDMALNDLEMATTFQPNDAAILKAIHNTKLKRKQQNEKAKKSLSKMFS

B1: Tel2 peptide with pSer492 replaced by phosphothreonine (peptide)
peptide: QGSDSELD[pT]DDEF
notes: also called phosphothreonine Tel2 peptide
Molecule B1 showed a dissociation constant Kd in assay [1] of 45.7 µM.

B2: Mre11 phosphopeptide MANDpSDDSI (peptide)
peptide: MAND[pS]DDSI
notes: Mre11, phosphorylation site 554-MANDpSDDSIS-563 found among sites in human proteins
The molecule B2 returned a Kd in assay [1] of 6.4 µM.

B3: human Hsp90 C-terminal peptide DDTSRMEEVD (peptide)
peptide: DDTSRMEEVD
notes: human Hsp90 C-terminal peptide; also called C-terminal Hsp90 peptide
For B3, in assay [2], the “KD of the TPR1 site (mutated; two site model)” value is approximately 231 µM. In assay [3], the “KD of the TPR1 site (non-mutated; two site model)” value is 0.94 µM. Also, in [4], the “KD of the moderate-affinity site (two site fitting)” value was found to be 23.6 µM, the “KD of the tight site (two site fitting)” value amounted to 1.49 µM and the “stoichiometry N” value was approximately 2 peptides per Spagh/RPAP3. Besides, in [5], the “KD of the moderate-affinity site (two site fitting)” value stood at 24 µM and the “KD of the tight site (two site fitting)” value is 1 µM.

Take B4: the binding result with His6-Hsp90β is reported as “binds”.

For B5, the binding result in the assay with His6-Hsp90β is reported as “binds”.

Regarding B6, in the assay with His6-Hsp90β, the binding result is “binds”.

Turning to B7, the “stoichiometry N” value in [6] is 1 Tah1-Pih1 heterodimer per cHsp90 chain (2:2:2).

Consider B8, for which the binding result (in assay [7]; in [8]; in the assay with FLAG-tagged Tah1; in [9]) was “binds” each time.
